Three molecules from paper PMC4861432, “Naturally Occurring Isoleucyl-tRNA Synthetase without tRNA-dependent Pre-transfer Editing” (The Journal of Biological Chemistry, 2016) can be followed below.

The target of one data set is T1, SgIleRS (Streptomyces griseus, UniProt B1W0J8).
T1 construct: gene ileS; ileS from genomic DNA in pET28b, E. coli BL21(DE3), Ni-NTA purified (His tag), ZnCl2 added during growth
T1 sequence (B1W0J8 1-1047): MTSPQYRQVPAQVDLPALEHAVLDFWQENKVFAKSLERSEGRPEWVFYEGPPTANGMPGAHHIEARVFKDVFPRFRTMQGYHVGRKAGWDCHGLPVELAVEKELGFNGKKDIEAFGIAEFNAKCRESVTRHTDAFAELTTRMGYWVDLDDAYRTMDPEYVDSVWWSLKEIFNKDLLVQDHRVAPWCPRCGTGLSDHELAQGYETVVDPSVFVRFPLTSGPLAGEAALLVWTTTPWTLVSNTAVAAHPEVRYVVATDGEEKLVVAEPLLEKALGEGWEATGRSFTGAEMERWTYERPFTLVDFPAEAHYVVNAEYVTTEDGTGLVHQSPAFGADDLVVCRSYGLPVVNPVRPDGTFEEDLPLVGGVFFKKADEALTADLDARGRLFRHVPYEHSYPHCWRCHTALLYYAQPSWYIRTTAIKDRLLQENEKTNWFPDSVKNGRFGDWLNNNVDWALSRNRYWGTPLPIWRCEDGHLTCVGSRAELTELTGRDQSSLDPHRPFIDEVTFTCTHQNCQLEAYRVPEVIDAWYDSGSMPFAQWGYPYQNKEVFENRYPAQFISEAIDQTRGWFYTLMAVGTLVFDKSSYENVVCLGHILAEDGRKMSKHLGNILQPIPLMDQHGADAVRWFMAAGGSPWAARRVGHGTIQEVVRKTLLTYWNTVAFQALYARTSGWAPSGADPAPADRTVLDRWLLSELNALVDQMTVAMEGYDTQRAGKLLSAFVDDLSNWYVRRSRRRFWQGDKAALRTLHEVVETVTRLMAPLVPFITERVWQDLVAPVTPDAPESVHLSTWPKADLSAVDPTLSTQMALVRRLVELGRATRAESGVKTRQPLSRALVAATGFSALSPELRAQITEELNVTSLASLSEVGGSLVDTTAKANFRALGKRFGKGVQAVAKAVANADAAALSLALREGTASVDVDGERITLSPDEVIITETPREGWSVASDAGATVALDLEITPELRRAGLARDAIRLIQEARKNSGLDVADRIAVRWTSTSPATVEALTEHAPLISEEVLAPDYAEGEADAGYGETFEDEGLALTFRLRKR
Put plainly: ATP-PPi exchange inhibition, global fit. It counts as biochemical.

In another data set the target is T2, ScIleRS (Saccharomyces cerevisiae, UniProt P09436).
T2 construct: gene ILS1; pET28b, E. coli Rosetta(DE3), Ni-NTA (His tag) and size-exclusion chromatography, monomer
T2 sequence (P09436 1-1072): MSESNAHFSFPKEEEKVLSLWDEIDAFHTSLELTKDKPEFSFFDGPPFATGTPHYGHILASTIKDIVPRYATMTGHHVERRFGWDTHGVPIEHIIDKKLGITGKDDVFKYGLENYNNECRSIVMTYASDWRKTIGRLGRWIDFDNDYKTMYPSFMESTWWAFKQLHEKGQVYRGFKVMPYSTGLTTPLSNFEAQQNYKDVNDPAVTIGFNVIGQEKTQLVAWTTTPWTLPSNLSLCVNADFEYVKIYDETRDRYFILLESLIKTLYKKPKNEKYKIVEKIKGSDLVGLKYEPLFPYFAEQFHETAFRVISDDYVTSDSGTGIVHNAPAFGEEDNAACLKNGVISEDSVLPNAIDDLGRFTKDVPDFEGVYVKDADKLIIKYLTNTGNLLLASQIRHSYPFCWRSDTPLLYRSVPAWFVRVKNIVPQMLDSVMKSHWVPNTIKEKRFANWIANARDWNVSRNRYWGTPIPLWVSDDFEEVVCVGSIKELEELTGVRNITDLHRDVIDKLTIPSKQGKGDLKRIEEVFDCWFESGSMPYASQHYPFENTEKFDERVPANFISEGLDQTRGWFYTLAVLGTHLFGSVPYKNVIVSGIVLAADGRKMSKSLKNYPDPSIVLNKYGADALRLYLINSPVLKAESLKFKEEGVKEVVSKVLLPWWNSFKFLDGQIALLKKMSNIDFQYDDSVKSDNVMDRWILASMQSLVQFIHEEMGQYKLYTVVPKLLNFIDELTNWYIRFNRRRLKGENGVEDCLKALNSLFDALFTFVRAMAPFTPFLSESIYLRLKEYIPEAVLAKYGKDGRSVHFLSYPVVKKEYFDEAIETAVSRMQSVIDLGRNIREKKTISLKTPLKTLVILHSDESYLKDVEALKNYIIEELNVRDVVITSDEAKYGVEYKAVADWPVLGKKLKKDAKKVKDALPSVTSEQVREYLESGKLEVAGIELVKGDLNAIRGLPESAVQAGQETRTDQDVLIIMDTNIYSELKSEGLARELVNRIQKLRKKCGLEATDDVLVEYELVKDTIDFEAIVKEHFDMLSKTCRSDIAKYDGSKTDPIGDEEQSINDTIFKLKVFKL
The data set can be described thus: ATP-PPi exchange inhibition, global fit. It counts as biochemical.

Substrate in data set [1]: CC(C)[C@H](N)C(=O)O
Put plainly: ATP-PPi exchange (amino acid activation). The class given is biochemical, Saccharomyces cerevisiae. The note with it: 30 °C, pH 7.5, 4 mM ATP, 1 mM PPi, 20 mM MgCl2, no tRNA. The source says: (§1) ATP-PPi exchange (amino acid activation) on ScIleRS

Substrate in data set [2]: CC[C@H](C)[C@H](N)C(=O)O
The data set can be described thus: ATP-PPi exchange (amino acid activation). It counts as biochemical, Saccharomyces cerevisiae. The note with it: 30 °C, pH 7.5, 4 mM ATP, 1 mM PPi, 20 mM MgCl2, no tRNA.
Source text: as §1

Substrate in data set [3]: CC(C)[C@H](N)C(=O)O
The data set can be described thus: ATP-PPi exchange (amino acid activation). The note with it: 30 °C, pH 7.5, 4 mM ATP, 1 mM PPi, 20 mM MgCl2, no tRNA. It counts as biochemical, Streptomyces griseus. The source says:
(§2) ATP-PPi exchange (amino acid activation) on SgIleRS

Substrate in data set [4]: CC[C@H](C)[C@H](N)C(=O)O
Put plainly: ATP-PPi exchange (amino acid activation). The class given is biochemical, Streptomyces griseus. The note with it: 30 °C, pH 7.5, 4 mM ATP, 1 mM PPi, 20 mM MgCl2, no tRNA.
Source text: as §2

As a reminder, the Ki is a dissociation constant, usually derived from enzyme kinetics or from competition with a known ligand. High values mean a looser hold on the target, low ones a stronger hold on the target. The term kcat denotes the number of substrate molecules converted per active site and unit of time at saturation.

For `C/C(=C\C(=O)OCCCCCCCCC(=O)O)C[C@@H]1OC[C@H](C[C@@H]2O[C@H]2[C@@H](C)[C@H](C)O)[C@@H](O)[C@H]1O` [mupirocin], the results for the Ki on SgIleRS and at ScIleRS were 10 mM and 0.028 mM, respectively.

B1: ScIleRS (Saccharomyces cerevisiae S288C) (protein)
chain: T2 sequence (P09436 1-1072)
notes: pET28b, E. coli Rosetta(DE3), Ni-NTA (His tag) and size-exclusion chromatography, monomer
Take B1: the kcat in data set [1] was 8.6 ± 1 s⁻¹; in data set [2] it was 11.4 ± 0.8 s⁻¹.

B2: SgIleRS (Streptomyces griseus subsp. griseus NBRC 13350) (protein)
chain: T1 sequence (B1W0J8 1-1047)
notes: ileS from genomic DNA in pET28b, E. coli BL21(DE3), Ni-NTA purified (His tag), ZnCl2 added during growth
Consider B2, for which the catalytic constant (kcat) in data set [3] came to 19.3 ± 0.4 s⁻¹; in data set [4], 20.6 ± 1.4 s⁻¹.
